Literature values in US20250282866A1, “TREATMENT OF DISEASES RELATED TO ATP-BINDING CASSETTE TRANSPORTER 1 DYSFUNCTION USING TREM2 AGONISTS” (VIGIL NEUROSCIENCE, INC., priority 2020, published 2025).
Positions count from the first letter of the chain named. Numbers in names are those of the source.

T1: human TREM2 (Homo sapiens, UniProt Q9NZC2)
T1 sequence (Q9NZC2 19-230): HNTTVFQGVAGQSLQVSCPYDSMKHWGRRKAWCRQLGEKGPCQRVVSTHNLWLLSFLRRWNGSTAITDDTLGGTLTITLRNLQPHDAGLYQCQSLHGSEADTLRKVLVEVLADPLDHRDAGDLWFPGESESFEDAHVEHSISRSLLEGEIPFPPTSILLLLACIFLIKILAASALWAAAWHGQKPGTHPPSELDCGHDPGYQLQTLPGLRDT

B1: V52: 6E7 variant: VH T30E, Q99G; VL N56R, S93R (antibody, V domains shown)
VH: EVQLVQSGAEVKKPGESLKISCKGSGYSFESYWIAWVRQMPGKGLEWMGIIYPGDSDTRYSPSFQGQVTISADKSISTAYLQWSSLKASDTAMYFCARGRTFYYDSSDYFDYWGQGTLVTVSS
VL: DIQMTQSPSSVSASVGDRVTITCRASQGISSWLAWYQQKPGKAPKLLIYAASSLQRGVPSRFSGSGSGTDFTLTISSLQPEDFATYFCQQADRFPRTFGQGTKLEIK
B2: V73: 6E7 variant: VH T30G, S63G, Q99G; VL L54R, F94Y (antibody, V domains shown)
VH: B1 VH with E30G, S63G
VL: B1 VL with L54R, R56N, R93S, F94Y
B3: V61: 6E7 variant: VH T30S, S61N, Q99G; VL Q55V, F94L (antibody, V domains shown)
VH: B1 VH with E30S, S61N
VL: B1 VL with Q55V, R56N, R93S, F94L
B4: V63: 6E7 variant: VH T30R, Q99S; VL N56R, S93R (antibody, V domains shown)
VH: B1 VH with E30R, G99S
VL: B1 VL
B5: V62: 6E7 variant: VH T30G, S61A, D108G; VL N56R, Q89G (antibody, V domains shown)
VH: B1 VH with E30G, S61A, G99Q, D108G
VL: B1 VL with Q89G, R93S
B6: V60: 6E7 variant: VH S28H, T58V, F110S; VL N56R, Q89G (antibody, V domains shown)
VH: B1 VH with S28H, E30T, T58V, G99Q, F110S
VL: B1 VL with Q89G, R93S
B7: V75: 6E7 variant: VH Q99G; VL N56A, F94Y (antibody, V domains shown)
VH: B1 VH with E30T
VL: B1 VL with R56A, R93S, F94Y
B8: V64: 6E7 variant: VH T30Q, Q99G; VL Q55A, F94Y (antibody, V domains shown)
VH: B1 VH with E30Q
VL: B1 VL with Q55A, R56N, R93S, F94Y
B9: V76: 6E7 variant: VH T30G, S63E, F110S; VL N56K (antibody, V domains shown)
VH: B1 VH with E30G, S63E, G99Q, F110S
VL: B1 VL with R56K, T69R, R93S
B10: V74: 6E7 variant: VH T30A, T58V, Q99G; VL N56L (antibody, V domains shown)
VH: B1 VH with E30A, T58V
VL: B1 VL with R56L, R93S
B11: V84: 6E7 variant: VH S28G, F110S; VL A50G (antibody, V domains shown)
VH: B1 VH with S28G, E30T, G99Q, F110S
VL: B1 VL with A50G, R56N, R93S
B12: V72: 6E7 variant: VH A35G, Q99G; VL Q55V, F94Y (antibody, V domains shown)
VH: B1 VH with E30T, A35G
VL: B1 VL with Q55V, R56N, R93S, F94Y

Molecular target: T1, human TREM2
Details: 1st screen; values printed without asterisk; concentration 110 nM or 10 nM (footnote a not given)

Binding Signal (fold over 6E7 Parental antibody) 1st screen 110 nM or 10 nM	Molecule
3.00 fold over 6E7 Parental antibod	B1
5.12 fold over 6E7 Parental antibod	B2
5.08 fold over 6E7 Parental antibod	B3
3.76 fold over 6E7 Parental antibod	B4
2.49 fold over 6E7 Parental antibod	B5
3.26 fold over 6E7 Parental antibod	B6
4.64 fold over 6E7 Parental antibod	B7
5.41 fold over 6E7 Parental antibod	B8
4.57 fold over 6E7 Parental antibod	B9
3.94 fold over 6E7 Parental antibod	B10
1.44 fold over 6E7 Parental antibod	B11
3.64 fold over 6E7 Parental antibod	B12

Same assay, conditions: 2nd screen, 2 nM

Binding Signal (fold over 6E7 Parental antibody) 2nd screen 2 nM	Molecule
1.78 fold over 6E7 Parental antibod	B1
4.17 fold over 6E7 Parental antibod	B2
3.63 fold over 6E7 Parental antibod	B3
4.91 fold over 6E7 Parental antibod	B4
1.87 fold over 6E7 Parental antibod	B5
3.35 fold over 6E7 Parental antibod	B6
3.74 fold over 6E7 Parental antibod	B7
4.88 fold over 6E7 Parental antibod	B8
4.34 fold over 6E7 Parental antibod	B9
2.54 fold over 6E7 Parental antibod	B10
1.45 fold over 6E7 Parental antibod	B11
2.50 fold over 6E7 Parental antibod	B12

Same assay, conditions: 2nd screen, 10 nM

Binding Signal (fold over 6E7 Parental antibody) 2nd screen 10 nM	Molecule
3.09 fold over 6E7 Parental antibod	B1
5.44 fold over 6E7 Parental antibod	B2
5.22 fold over 6E7 Parental antibod	B3
3.71 fold over 6E7 Parental antibod	B4
2.89 fold over 6E7 Parental antibod	B5
3.63 fold over 6E7 Parental antibod	B6
4.52 fold over 6E7 Parental antibod	B7
5.48 fold over 6E7 Parental antibod	B8
4.93 fold over 6E7 Parental antibod	B9
4.01 fold over 6E7 Parental antibod	B10
1.62 fold over 6E7 Parental antibod	B11
4.01 fold over 6E7 Parental antibod	B12
